Measurements: patent publication CN116406375A (UNIV SHANGHAI TECHNOLOGY, dated 2023)

T1: HCoV-NL63刺突 (HCoV-NL63, UniProt Q6Q1S2 19-1356)
T1 construct: whole, on cells
T1 sequence: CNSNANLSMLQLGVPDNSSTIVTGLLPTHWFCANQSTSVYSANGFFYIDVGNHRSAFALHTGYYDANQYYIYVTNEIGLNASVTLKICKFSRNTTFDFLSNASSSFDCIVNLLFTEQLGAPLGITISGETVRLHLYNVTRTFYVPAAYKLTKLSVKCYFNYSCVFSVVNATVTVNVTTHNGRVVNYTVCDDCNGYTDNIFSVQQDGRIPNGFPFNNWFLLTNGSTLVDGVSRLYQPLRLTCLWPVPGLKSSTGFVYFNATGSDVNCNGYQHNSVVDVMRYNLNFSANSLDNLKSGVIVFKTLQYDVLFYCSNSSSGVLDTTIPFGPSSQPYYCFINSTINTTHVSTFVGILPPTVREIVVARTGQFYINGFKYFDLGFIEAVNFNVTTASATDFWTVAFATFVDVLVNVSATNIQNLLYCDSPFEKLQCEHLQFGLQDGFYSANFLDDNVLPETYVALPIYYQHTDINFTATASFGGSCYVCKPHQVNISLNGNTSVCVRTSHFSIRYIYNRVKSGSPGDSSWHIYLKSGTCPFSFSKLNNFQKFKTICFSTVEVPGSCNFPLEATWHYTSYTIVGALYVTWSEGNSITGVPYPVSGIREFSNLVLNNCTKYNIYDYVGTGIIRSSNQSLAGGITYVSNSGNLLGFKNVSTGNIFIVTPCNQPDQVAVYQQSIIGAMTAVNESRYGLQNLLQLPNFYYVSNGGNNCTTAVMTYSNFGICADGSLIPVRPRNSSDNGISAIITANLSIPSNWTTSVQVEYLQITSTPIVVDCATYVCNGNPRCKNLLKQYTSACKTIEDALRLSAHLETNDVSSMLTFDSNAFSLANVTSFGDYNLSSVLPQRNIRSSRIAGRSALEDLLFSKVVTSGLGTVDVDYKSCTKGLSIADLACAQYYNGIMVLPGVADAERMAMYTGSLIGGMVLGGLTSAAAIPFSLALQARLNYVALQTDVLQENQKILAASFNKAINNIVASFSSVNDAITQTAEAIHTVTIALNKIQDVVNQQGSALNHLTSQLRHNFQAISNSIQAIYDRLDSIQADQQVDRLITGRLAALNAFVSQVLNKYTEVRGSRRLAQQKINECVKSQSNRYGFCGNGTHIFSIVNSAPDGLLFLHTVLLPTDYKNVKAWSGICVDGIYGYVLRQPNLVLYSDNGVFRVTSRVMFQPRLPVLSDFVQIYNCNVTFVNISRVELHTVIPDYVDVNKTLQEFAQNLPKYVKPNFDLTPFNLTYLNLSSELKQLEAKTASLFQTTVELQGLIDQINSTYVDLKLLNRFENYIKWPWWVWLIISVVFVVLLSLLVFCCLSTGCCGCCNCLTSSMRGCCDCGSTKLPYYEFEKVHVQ

T2: HCoV-229E刺突 (HCoV-229E, UniProt P15423 16-1173)
T2 construct: whole, on cells
T2 sequence: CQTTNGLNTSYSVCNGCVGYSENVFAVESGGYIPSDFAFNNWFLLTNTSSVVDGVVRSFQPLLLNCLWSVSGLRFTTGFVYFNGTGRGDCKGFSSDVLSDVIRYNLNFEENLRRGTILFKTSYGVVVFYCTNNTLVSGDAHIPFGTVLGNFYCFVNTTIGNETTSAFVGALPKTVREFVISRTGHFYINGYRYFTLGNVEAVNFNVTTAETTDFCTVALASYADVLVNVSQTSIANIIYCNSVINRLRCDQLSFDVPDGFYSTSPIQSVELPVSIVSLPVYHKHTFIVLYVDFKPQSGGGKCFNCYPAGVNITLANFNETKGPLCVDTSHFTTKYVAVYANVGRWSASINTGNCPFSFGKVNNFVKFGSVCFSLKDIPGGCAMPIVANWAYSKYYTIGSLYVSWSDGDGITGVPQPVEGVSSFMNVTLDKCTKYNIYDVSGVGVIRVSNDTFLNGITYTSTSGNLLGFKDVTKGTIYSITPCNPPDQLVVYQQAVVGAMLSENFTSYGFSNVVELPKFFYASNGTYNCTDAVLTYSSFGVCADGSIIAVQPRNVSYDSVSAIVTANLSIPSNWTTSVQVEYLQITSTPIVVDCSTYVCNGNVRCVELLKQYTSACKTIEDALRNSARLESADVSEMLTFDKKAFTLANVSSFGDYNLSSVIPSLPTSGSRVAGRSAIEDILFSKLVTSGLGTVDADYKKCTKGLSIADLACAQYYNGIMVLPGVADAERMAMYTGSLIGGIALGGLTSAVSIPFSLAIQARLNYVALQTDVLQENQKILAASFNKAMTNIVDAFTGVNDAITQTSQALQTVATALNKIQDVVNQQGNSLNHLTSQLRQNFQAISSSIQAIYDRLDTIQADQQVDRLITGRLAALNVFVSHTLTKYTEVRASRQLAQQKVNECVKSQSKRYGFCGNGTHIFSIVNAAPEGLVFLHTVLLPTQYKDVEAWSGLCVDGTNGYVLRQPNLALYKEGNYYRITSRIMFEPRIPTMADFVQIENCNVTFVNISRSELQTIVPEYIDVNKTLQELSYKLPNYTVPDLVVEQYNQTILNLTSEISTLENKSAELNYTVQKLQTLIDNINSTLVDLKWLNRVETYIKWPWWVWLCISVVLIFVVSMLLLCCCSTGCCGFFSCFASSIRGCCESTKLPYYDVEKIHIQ

T3: HCoV-OC43刺突 (HCoV-OC43, UniProt P36334 14-1353)
T3 construct: whole, on cells
T3 sequence: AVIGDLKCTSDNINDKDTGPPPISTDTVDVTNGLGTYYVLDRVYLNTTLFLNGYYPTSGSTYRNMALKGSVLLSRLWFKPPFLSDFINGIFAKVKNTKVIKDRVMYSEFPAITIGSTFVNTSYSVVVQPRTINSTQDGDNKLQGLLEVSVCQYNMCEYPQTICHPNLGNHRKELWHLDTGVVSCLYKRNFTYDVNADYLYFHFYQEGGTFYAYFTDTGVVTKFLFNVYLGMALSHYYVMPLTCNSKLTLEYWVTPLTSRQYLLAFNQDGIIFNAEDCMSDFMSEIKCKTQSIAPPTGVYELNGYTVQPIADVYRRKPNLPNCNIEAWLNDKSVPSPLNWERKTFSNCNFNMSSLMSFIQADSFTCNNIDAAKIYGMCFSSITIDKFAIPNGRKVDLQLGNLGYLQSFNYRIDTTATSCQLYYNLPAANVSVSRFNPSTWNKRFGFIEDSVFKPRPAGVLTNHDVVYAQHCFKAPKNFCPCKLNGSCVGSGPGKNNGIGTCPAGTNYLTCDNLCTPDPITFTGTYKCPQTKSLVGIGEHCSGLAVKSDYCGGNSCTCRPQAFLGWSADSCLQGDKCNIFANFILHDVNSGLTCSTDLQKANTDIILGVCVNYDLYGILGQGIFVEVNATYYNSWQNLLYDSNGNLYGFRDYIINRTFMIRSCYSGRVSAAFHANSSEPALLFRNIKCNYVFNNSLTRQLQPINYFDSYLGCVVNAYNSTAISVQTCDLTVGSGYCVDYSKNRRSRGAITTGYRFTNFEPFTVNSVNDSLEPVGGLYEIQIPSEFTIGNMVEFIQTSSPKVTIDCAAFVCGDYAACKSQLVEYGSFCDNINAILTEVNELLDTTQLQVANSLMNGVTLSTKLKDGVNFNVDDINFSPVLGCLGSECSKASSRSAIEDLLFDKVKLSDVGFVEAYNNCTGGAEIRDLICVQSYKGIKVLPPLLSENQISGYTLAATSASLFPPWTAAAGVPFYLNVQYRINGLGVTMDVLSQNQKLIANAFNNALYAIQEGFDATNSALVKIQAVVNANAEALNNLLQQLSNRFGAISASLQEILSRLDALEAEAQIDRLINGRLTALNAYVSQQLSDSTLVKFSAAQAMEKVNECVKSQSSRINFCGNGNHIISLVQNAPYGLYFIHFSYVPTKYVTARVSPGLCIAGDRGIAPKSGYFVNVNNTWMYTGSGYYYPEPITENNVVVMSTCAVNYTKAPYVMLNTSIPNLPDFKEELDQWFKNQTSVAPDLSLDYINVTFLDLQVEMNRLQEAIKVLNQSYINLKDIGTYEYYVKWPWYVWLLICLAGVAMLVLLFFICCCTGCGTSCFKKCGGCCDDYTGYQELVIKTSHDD

T4: HCoV-HKU1刺突 (HCoV-HKU1, UniProt Q5MQD0 13-1356)
T4 construct: whole, on cells
T4 sequence: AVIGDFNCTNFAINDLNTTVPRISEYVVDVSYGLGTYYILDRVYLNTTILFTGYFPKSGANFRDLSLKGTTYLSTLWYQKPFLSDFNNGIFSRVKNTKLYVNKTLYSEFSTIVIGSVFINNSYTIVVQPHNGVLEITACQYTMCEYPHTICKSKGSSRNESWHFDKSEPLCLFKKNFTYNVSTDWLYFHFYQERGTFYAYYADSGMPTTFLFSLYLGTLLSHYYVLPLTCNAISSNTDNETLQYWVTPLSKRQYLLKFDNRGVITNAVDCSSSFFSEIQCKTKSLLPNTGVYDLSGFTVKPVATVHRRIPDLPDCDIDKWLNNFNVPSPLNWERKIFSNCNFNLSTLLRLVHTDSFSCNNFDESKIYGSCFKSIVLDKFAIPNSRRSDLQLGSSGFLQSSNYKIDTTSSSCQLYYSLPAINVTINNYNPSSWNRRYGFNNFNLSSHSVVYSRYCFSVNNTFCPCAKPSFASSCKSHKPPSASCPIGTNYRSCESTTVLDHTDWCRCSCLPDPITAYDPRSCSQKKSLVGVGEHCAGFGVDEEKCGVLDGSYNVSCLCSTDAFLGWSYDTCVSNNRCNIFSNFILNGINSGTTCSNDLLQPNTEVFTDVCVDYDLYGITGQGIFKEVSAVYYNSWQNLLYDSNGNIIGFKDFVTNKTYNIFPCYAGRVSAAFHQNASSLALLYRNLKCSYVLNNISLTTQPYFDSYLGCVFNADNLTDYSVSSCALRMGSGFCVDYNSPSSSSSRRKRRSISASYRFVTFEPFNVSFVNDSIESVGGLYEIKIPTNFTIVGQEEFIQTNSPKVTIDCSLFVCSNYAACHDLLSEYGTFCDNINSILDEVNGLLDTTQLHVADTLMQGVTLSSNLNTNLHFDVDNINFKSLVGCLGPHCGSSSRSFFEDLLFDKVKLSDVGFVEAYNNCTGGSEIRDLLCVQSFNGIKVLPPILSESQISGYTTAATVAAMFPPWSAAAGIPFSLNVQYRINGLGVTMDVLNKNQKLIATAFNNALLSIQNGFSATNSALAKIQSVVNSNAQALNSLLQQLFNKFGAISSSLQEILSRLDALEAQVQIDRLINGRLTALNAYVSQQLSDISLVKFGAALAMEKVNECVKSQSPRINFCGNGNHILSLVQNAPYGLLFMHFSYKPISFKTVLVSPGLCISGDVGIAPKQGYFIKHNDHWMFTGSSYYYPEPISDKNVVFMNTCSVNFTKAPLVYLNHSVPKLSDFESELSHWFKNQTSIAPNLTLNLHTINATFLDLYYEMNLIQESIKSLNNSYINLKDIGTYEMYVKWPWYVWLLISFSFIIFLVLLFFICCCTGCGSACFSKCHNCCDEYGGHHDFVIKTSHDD

B1: S-B8 (antibody, V domains shown)
VH: QVQLVQSGGGLIQPGGSLRLSCAASGFTVSLSHMNWVRQAPGKGLEWVSITYGDGNSDYADSVKGRFTISRDNSKNTLYLQMNSLRAEDTAVYYCAREYYYGMDVWGQGTTVTVSS
VL: not shown
notes: also called S-B8二聚体
B2: S-D4 (antibody, V domains shown)
VH: QVQLQESGGGVVQPGRSLRLSCEVSGFTFSDYGMHWVRQAPGKGLEWVAVIWSEGSTEYYADSVKGRFTISRDNSKDTLYLQMNSLRAEDTAVYYCARPGYPTSTDRSPAAAGARQYYYYGMDVWGQGTTVTVSS
VL: NFMLTQPHSVSESPGKTVTISCTRSGGSGAANYVQWYQQRPGSSPTTLIYEDSRRPPGVPDRFSGSVDTSSNSASLTISGLQTEDEADYYCQSYDSSNHVVFGGGTKLTVLG
notes: also called S-D4二聚体; S-D4 IgG4
B3: S-E6 (antibody, V domains shown)
VH: QVTLRESGPGLVKPSETLSLTCAVSGGSLSSVNYYWSWIRQHPGKGLEWIGYIYYSGSTNYNPSLKSRVTMSLDTSKNQFSLKLSSVTAADTAVYYCATPGAIMGALHIWGQGTLVTVSS
VL: QAVLTQPSSASSTPGQRVIISCSGSSSNIGSNTVSWYQQVPGAAPKLLIYFDYRRPSGVPDRFSGTRSGTSASLGISGLQSEDEADYYCAAWDDSLSAWVFGRGTKLTVLG
notes: also called S-E6二聚体; 二聚体S-E6

Legend:
HCoV-NL63刺突 = target: T1, HCoV-NL63刺突; assay: FACS on transfected HEK293T cells
HCoV-229E刺突 = target: T2, HCoV-229E刺突; assay: FACS on transfected HEK293T cells
HCoV-OC43刺突 = target: T3, HCoV-OC43刺突; assay: FACS on transfected HEK293T cells
HCoV-HKU1刺突 = target: T4, HCoV-HKU1刺突; assay: FACS on transfected HEK293T cells
[1] = target: 真SARS-CoV-2病毒 Victoria/01/2020 的刺突 (SARS-CoV-2); assay: cell-based or functional assay

Binder	binding result (HCoV-NL63刺突)	binding result (HCoV-229E刺突)	binding result (HCoV-OC43刺突)	binding result (HCoV-HKU1刺突)	NT50, 真病毒中和 (Victoria/01/2020) [1] [nM]
B1	no binding	no binding	no binding	no binding	0.88
B2	no binding	no binding	no binding	no binding	2.04
B3	no binding	no binding	no binding	no binding	0.15
